Experimental data as given in patent US10799584B2, “Combination therapies using agents that target tumor-associated stroma or tumor cells and alkylating agents” (BIOMED VALLEY DISCOVERIES, INC., priority 2014, dated 2020).

Key:
[1] = test system: H460 tumors; test: H460 xenograft model, M830 with gemcitabine, cisplatin or radiation; format: in vivo, nude mice; conditions: endpoint 2000 mm^3 or Day 58; logrank
From the text: (§1) The statistical tests were not adjusted for multiple comparisons.
Treatment began on Day 1 in eight groups of nude mice (n=10) with established subcutaneous H460 tumors of 75-126 mm^3. […] The study endpoint was a tumor volume of 2000 mm^3 or the final day, Day 58, whichever came first. […] The median TTE for controls was 15.6 days, establishing a maximum possible TGD of 42.4 days (272%) for the 58-day study.

[2] = test system: DLD-1 tumor cells; test: DLD-1 colorectal adenocarcinoma xenograft model, first study; format: in vivo, mice; conditions: DLD1 Colon, Day 21
Method: Tumor weights were calculated following surgical removal. […] Irinotecan was given once per week at 60 mg/kg i.v. and bevacizumab was dosed at 5 mg/kg i.p., three times per week.

[3] = test system: H460 cells; test: H460 non-small cell lung carcinoma xenograft model, M830 with bevacizumab or paclitaxel; format: in vivo, athymic nude mice; conditions: for % Tumor Reduction vs. combination partner at Day (#): Day 32
Method: Animals were monitored for regression responses.
as §1
Cultured H460 cells were harvested during exponential growth and resuspended in phosphate buffered saline at a concentration of 1×10^8 cells/mL. 1.0×10^7 tumor cells were injected subcutaneously into the flank of athymic nude mice. Animals were euthanized when tumors reached the pre-determined volume endpoint of 2000 mm^3 or on the final day (Day 88), whichever came first.

[4] = test system: HCT116 tumor cells; test: HCT116 colorectal carcinoma xenograft model, TEM8 antibodies; format: in vivo, mice; conditions: HCT116 Colon; no combination partner; M830 IP 3 times per week; start at 60-80 mm^3
Method: Tumor cells were cultured in RPMI-1640 medium supplemented with 10% fetal bovine serum, 2 mM glutamine, 100 units/mL penicillin G sodium, 100 μg/mL streptomycin sulfate, and 25 μg/mL gentamicin. The tumor cells were grown in tissue culture flasks in a humidified incubator at 37° C., in an atmosphere of 5% CO2 and 95% air.
2.5×10^6 to 5×10^6 HCT116 tumor cells were injected subcutaneously into the flank of mice. Tumor weights were calculated following surgical removal. Treatment was initiated when tumor volume reached 60-80 mm^3. Dosing volume was 10 mL/kg (0.2 mL/20 g mouse).
TEM8 Ab (hIgG1) doses were 5 and 15 mg/kg, three times per week, for 3 weeks. Bevacizumab was dosed at 5 mg/kg, twice per week, for 3 weeks. FIG. 1B and FIG. 1D show mean tumor growth and percent body weight change for each group, respectively, over the time course of the study.

[5] = combination partner Bevacizumab

N.N.[Cl][Pt][Cl] [Cisplatin, cisplatin]
outcome (survival) compared to vehicle-treated controls [1]: statistically significant survival benefit

Nc1ccn([C@@H]2O[C@H](CO)[C@@H](O)C2(F)F)c(=O)n1 [gemcitabine]
outcome (survival) compared to vehicle-treated controls [1]: not statistically different

B1: M830: TEM8 monoclonal antibody (hIgG1), VH SEQ ID NO:5, VL SEQ ID NO:6 (antibody, V domains shown)
VH: EVQLVESGGGVVQPGRSVRLSCAASGFTFSTYTMHWVRQAPGKGLEWVAIISNDGSNKYYADPVRGRFTISRDNSKNTLYLQMNSLRAEDTAVYYCVRGSSWYRGNWFDPWGQGTLVTVSS
VL: DIQMTQSPSSLSASVGDRVTIACRASQTISRYLNWYQQKPGKAPKLLIYAASSLQSGVSSRFSGSGSGTEFTLTISSLQPEDFATYFCQQTYSPPITFGQGTRLEIKR
modifications: TEM830 mAb VH; TEM830 mAb VL
% Tumor Reduction vs. combination partner at Day (#) [2, 5]: 48%
% Tumor Reduction vs. combination partner at Day (#) ([2]; combination partner Irinotecan): 53%
% Tumor Reduction vs. combination partner at Day (#) [3, 5]: 58.5%
% Tumor Reduction vs. Vehicle at Day 21 ([3]; combination partner Bevacizumab, M830 IP 3 times per week): 94.5%^
regression (vs. Vehicle at Day 21) ([3]; combination partner Paclitaxel): (−61%
% Tumor Reduction vs. combination partner at Day (#) ([3]; combination partner Paclitaxel): 94%
outcome (survival) compared to vehicle-treated controls [1]: not statistically different
% Tumor Reduction vs. Vehicle at Day 21 [4]: 39.5%^
